Data published in the DeepSol protein solubility set.

Assay: soluble on expression in E. coli; label from the status in PepcDB or PDB records

Sequence | soluble on expression in E. coli
MSKDFIINEQIRAREVRLIDQNGDQLGIKSKQEALEIAARRNLDLVLVAPNAKPPVCRIMDYGKFRFEQQKKEKEARK | soluble
MGSSHHHHHHSSGLVPRGSHMFADVETTCCARRTLTTIDEVPGMADETALLDWLGTMREKQPVWQDRYGVWHVFRHADVQTVLRDTATFSSDPTRVIEGASPTPGMIHEIDPPEHRALRKVVSSAFTPRTISDLEPRIRDVTRSLLADAGESFDLVDVLAFPLPVTIVAELLGLPPMDHEQFGDWSGALVDIQMDDPTDPALAERIADVLNPLTAYLKARCAERRADPGDDLISRLVLAEVDGRALDDEEAANFSTALLLAGHITTTVLLGNIVRTLDEHPAHWDAAAEDPGRIPAIVEEVLRYRPPFPQMQRTTTKATEVAGVPIPADVMVNTWVLSANRDSDAHDDPDRFDPSRKSGGAAQLSFGHGVHFCLGAPLARLENRVALEEIIARFGRLTVDRDDERLRHFEQIVLGTRHLPVLAGSSPRQSA | soluble
MSLNDKAILVGVDGSHASYKATWWAANYAKHAGLTLQIVCAYSLPSYAAVSFDATYTAMGDDNAAHNDAQEILSKAKAIADEQGVEASTLIVTGDPASVFVELSRNYNLIVIGNRGKGGLAERLLGTTSSSLPAYAYCPIVVVPYTDDEGNLMHLNNTITKVAVGSDESKWGLKALEIAAAFADSWGAELDVISAVPNMKGSEDEGVMASFQEDLDVRIKPLEAAYPSLKINKQIVPGPAAGALTKASYDHDVVVVGSRGRGGFTGLLLGSTSQGLLQHAVGPVYVVPRKYVEAAETRLDTVPSSPADVTPKAIDDIKGVEEVPVDKAKPEVVEAIETKIDPDREGHHHHHH | soluble
MSLRVDTLIRGGVVLTMDGDFTRHDAGYVAVTGGRISHVGADADAAGLSAERVIDAEGGIILPGFVNTHCHAAMTLFRGLADDVDLDGFLRTVWRAEAEHIGPASVELGAELAIAEMALSGVTHFLDMYWYPEATIAAAQRVGMGLTSGPPMLNVEGVDGMGWAERMAYTEGFLERYSGVDGVQPMLLPHGCYTLDADKLAEIANLARAAGCGVHIHAAEAAWEMQLVRDAYGTTPVRALERAGLLEQPLLLAHAVHLDGEEIALLADAGAGVAHCPLSNAKLASGMAPIGEMRASGVTLSLGTDGPASGNDLDMFATMRLAALVHNLRSGTSDTLPARDLVAMATSGGAMALGLGARTGSLEVGKQADITVVATDAPHNVPSYCPYSTLVFSAGRSEVRHVLARGRALVADGRPTTPTEPVKAEVRRLAADIANRRDEGHHHHHH | soluble
MSLGQVGVGRVLQRYIILKGRNSEHLFVAAESLIAIDRLPAAIITRLTQTNDPLGEVMAASHIETFKEEAKVWVGDLPGWLALHGYQNSRKRAVARRYRVISGGQPIMVVTEHFLRSVFRDEGHHHHHH | not soluble
GMKKIRFAAIGLAHNHIYDMCQQLIDAGAELAGVFESDSDNRAKFTSLFPSVPFAASAEQLITDASIDLIACAVIPCDRAELALRTLDAGKDFFTAKPPLTTLEQLDAVQRRVAETGRKFAVYFNERINVDSALFAGELVQRGEIGRVIQTMGVGPHRERGARPDWFYQKRQYGGILCDIGIHQIEQFLYFTGNTNARVVTSQTANYHHPHHPEFEDFGDAMLLGDNGATGYFRCDWFTPDGLSVWGDGRLTILGTEGYIEIRKYVDLTRGESNVVYLVNGKGEQRFTPAGSVERAFFPDFLRDCRERTENAMSQSHIFKATELSILAQQAANKIA | soluble
MLKSVQGLWKDFFGIRDDGRKREYGSLDEVRKRSALRSRRKQMRPTGKSVLKRPRKVTDRKTEEKIRTNRRKTPKRRLTKIFQTIRDVFSNDNENMSKMQNVCGDMTRILKKRSQGRPSYMDTDTAKSRILRSDAFKRKISELKYNKQRISELRSGSSDGSSGKDRNQSLYLDREILLQRQIKKRDEKIKALESKLQSLQEALNYSNEKYRILEDLLDSSNIHPSYTKSRRTMSNLARENDEIKPLKIDLSPSPIRRTNSLFTSSPMKTYNRDGNIPEMQPLQENISPACPTPPYRSRETEKEDETLSPISVDFSSYLS | soluble
MPHSQTSAPRDSLAGVRLARGASPWLLPTVATAAVSLLRARRSGTAKAVAVPATALAAGMLWFFRDPEREITQGRVVSPADGVVQSIMPWKDGRTRVAIFMSPLNVHVNRAPLAGTVTSVEHVPGGFVPAFNKESENNERVVWHFDTELGDIEMIQIAGAVARRIVPYVPQGTKVEQGERVGLIRFGSRVDLYLPEGVEVDVEVGQKTVAGVTRIDRDLEHHHHHH | not soluble
MSLEKTKLPWDEFFSLNKDINHTYFTPEDFSGDEDLIAKTTEQFVKQEIVPQMENIEQHNYKVSRQLFEKAGELGLLGIEVPEDYGGFELGKAVSGLVAEKMGYAGAFSVSFNIHAGVGTLPYIYYGTKEQKEKYLPKIASGEWIGAYALTEPNAGSDALSAKTSAVLNEEGTAWKLNGEKQWITNAHMADVYVVFAKTNKGMTAFIVERTCEGVSIGLEEKKMGIKGSSTATLILEDVVIPAENVLGEVGKGHHVALNILNFARLKLAFGNIGTAKQAIGLSVQYGKERKQFQTELVDFTMIQEKIANMIIATYGAESAAYRTAGVIDEAIHESDEDLMKKMSQFAIECALNKVNASETLAYIVDEAVQIHGGYGYMQEYEVERLYRDARISRIFEGTNEINRLTVAKMLMKQIEQLEDTEVESDVANVERNHRYILLAKKLLKQSLKTLSKTPGLKIDQEQEYSRVISNMLTDVYVMESAFLRTRKAVSKNGEEKERTKQLITDVICEEGYRKVEEAAISVLSAAVTEEQDRHVILAEIRQLLVPLYTNVFTKKREIAKAIINRGKYIVEGHHHHHH | soluble
MGSDKIHHHHHHMQIAVSGGKGGTGKSTVAINLAVELAKKFKLVLADLDVEAPNDHLLLGVELQNEREVHQFMPKFNYSKCIKCRKCAEACEEHAIVTLRDGTPFLMPTLCSGCRACEIVCPVPGAIEEGSRLIGHTYETLTPYGFTLVTGKLREGEERSMPLVVAAKRRAKELKWDLLIVDTAAGTGNTVSKAIEGSQLLIAVTEPTPLGIHDTELILKLGELMRIETWIVINRSDLGDVKEVYRRAKKYNAEVIAEIPYSENIVKTYVAGKPIVTTDYPEAGIFREIAEKVYEFLR | not soluble
